Assay results as given in patent US20200071394A1.
Read-outs that look alike come from different tables or passages of the source.

Assays:
[1] = molecular target: Recombinant Human IL-17A, Sino Biological, 12047-HNAS (human) (UniProt Q16552); test: indirect ELISA, human IL-17A coated
[2] = molecular target: Recombinant Human IL-17A, Sino Biological, 12047-HNAS (human) (UniProt Q16552); test: SPR (Biacore), antibody captured by anti-human antibody on the chip, IL-17A as analyte, 1:1 model
[3] = molecular target: Recombinant Human IL-17A, Sino Biological, 12047-HNAS (human) (UniProt Q16552); test: indirect ELISA, human IL-17A coated; remark: listed apart in the source
[4] = molecular target: Recombinant Human IL-17A, Sino Biological, 12047-HNAS (human) (UniProt Q16552); test: cell-based or functional assay

Sequence of Recombinant Human IL-17A, Sino Biological, 12047-HNAS (human) (Q16552 24-155 limits assumed, form in doubt): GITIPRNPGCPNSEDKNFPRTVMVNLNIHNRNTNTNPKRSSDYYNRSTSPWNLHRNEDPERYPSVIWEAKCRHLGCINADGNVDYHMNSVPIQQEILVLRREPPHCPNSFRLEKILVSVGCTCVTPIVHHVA

EC50 [1]: 0.0329 µg/mL
Kd [2]: 0.111 nM
koff [2]: 0.000161 s⁻¹
kon [2]: 1.46e+06 M⁻¹ s⁻¹
EC50 [3]: 0.0341 µg/mL
IC50 of IL-6 release by HT1080 cells stimulated with IL-17A and TNFα [4]: 0.52 µg/mL
IC80 of IL-6 release by HT1080 cells stimulated with IL-17A and TNFα [4]: 2.11 µg/mL
IC90 of IL-6 release by HT1080 cells stimulated with IL-17A and TNFα [4]: 4.8 µg/mL
Substance: Novartis humanized anti-IL-17 antibody (Novartis mAb)
